According to article PMC7227451 (Cellular and Molecular Immunology, 2020):

Target: T1, SARS-CoV-2 RBD-hFc (SARS-CoV-2, UniProt P0DTC2)
T1 construct: not shown: Fc (human IgG1), C-terminal, kept
Assay: ELISA
Settings: both partners purified

B1: 80R (antibody, V domains shown)
VH: EVQLVQSGGGVVQPGKSLRLSCAASGFAFSSYAMHWVRQAPGKGLEWVAVISYDGSNKYYADSVKGRFTISRDNSKNTLYLQMNSLRAEDTAVYYCARDRSYYLDYWGQGTLVTVSS
VL: ETTLTQSPATLSLSPGERATLSCRASQSVRSNLAWYQQKPGQAPRPLIYDASTRATGIPDRFSGSGSGTDFTLTISRLEPEDFAVYYCQQRSNWPPTFGQGTKVEVK
binding result: no binding
